# Source: patent publication US20210085786A1
# Target: receptor tyrosine kinase-like orphan receptor 1 (ROR1) (human) (UniProt Q01973)
# Experiment: flow cytometry (FSC against control stain) of PDX tumour cells stained with the control antibody, same ROR1+ gate
# Sequence of UniProt Q01973 (Q01973 30-937): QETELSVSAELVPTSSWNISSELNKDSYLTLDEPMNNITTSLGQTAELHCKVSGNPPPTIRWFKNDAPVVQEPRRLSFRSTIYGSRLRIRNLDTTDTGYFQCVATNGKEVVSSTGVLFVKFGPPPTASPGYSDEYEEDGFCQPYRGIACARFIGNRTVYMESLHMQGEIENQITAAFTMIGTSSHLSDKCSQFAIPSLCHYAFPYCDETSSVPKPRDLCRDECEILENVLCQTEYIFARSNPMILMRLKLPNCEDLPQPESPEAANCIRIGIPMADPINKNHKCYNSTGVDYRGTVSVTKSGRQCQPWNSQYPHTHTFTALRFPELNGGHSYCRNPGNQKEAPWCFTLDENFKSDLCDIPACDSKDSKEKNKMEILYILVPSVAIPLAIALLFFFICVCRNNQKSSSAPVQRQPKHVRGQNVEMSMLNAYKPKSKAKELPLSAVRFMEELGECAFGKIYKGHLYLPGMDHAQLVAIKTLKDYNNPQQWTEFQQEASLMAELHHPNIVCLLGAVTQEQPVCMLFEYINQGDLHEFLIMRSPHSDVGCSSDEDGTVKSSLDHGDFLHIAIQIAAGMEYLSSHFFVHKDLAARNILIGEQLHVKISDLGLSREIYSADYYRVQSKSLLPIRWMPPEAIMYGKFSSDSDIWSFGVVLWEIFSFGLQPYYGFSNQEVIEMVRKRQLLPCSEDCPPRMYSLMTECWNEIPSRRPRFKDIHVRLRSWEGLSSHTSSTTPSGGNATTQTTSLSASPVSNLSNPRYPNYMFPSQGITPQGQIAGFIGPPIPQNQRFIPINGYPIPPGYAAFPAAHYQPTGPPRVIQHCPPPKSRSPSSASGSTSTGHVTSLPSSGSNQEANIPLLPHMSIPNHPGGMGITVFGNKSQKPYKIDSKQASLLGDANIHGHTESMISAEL
substance,measurement,value
Control (antibody),% of cells in the ROR1+ gate,0.7%
